From patent publication WO2007023782A1 (dated 2007)

B1: ScFv-A1 (scFv)
scFv: MAQVKLQQSGAELMKPGASVKISCKATGYTFSSYWIEWVKQRPGHGLEWIGEILPGSGSTNYNEKFKGKATFTADTSSNTAYMQLSSLTSEDSAVYYCARYYGNYYAMDYWGQGTTVTVSSGGGGSGGGGSGGGGSDIVLTQSPAIMSASPGEKVTITCSVSSSISSSNLHWYQQKSETSPKPWIYGTSNLASGVPGRFSGSGSGNSYSLTISSMEAEDVATYYCFQGSGYPLTFGSGTKLEIKRAAAGAPVPYPDPLEPR
notes: also called ScFv-Al; ScFv KTIdAb
B2: ScFv-A3 (scFv)
scFv: MAQVKLQQSGAELMKPGASVKISCKATGYTFSSYWIEWVKQRPGHGLEWIGEILPGSGSTNYNEKFKGKATFTADTSSNTAYMQLSSLTSEDSAVYYCARYYGNYYAMDYWGQGTTVTVSSGGGGSGGGGSGGGGSDIVLTQSPAIMSASPGEKVTITCSVSSSRSSSNLHWYQQKSETSPKPWIYGTSNLASGVPGRFSGSGSGKLLLSHDQQHEAEDVATYYCFQGSGYPLTFGSGTKLEIKRAAAGAPVPYPDPLEPR
notes: Mouse anti-idiotypic single chain Fv, VH-(Gly4Ser)3 linker-VL, with a C-terminal E-Tag; also called ScFv KTIdAb; anti-idiotypic ScFv
B3: ScFv-A4 (scFv)
scFv: MAQVKLQQSGAELMKPGASVKISCKATGYTFSSYWIEWVKQRPGHGLEWIGEILPGSGSTNYNEKFKGKATFTADTSSNTAYMQLSSLTSEDSAVYYCARYYGNYYAMDYWGQGTTVTVSSGGGGSGGGGSGGGGSDIVLTQSPAIMSASPGEKSPSPAVSAQVYVPATCTGTSRSQKPPPNPGFMAHPTWLLESQVASVAVGLENSYSLTISSMEAEDVATYYCFQGSGYPLTFGSGTKLEIKRAAAGAPVPYPDPLEPR
notes: as for B2
B4: ScFv-A2 (scFv, V domains shown)
VH: QVKLQQSGAELMKPGASVKISCKATGYTFSSYWIEWVKQRPGHGLEWIGEILPGSGSTNYNEKFKGKATFTADTSSNTAYMQLSSLTSEDSAVYYCARYYGNYYAMDYWGQGTTVTVSS
notes: as for B2

What was measured:
[1] = target: T1, nmAb-KT (neutralizing monoclonal antibody against HM-1 killer toxin); assay: SPR (BIAcore X), nmAb-KT immobilised on CM5 chip; Ka = kon/koff
T1 construct: also called nmb-KT; HM-1 neutralizing monoclonal antibody

[2] = target: T1, nmAb-KT (neutralizing monoclonal …); assay: SPR (BIAcore X), nmAb-KT immobilised on CM5 chip, ScFv 15.75-250 nM as analyte, 25 C, HBS-EP
[3] = target: T2, BSA (Bovine serum albumine) (bovine, UniProt P02769 25-607); assay: SPR (BIAcore X), BSA negative control
T2 construct: Negative control; also called negative control

[4] = target: T1, nmAb-KT (neutralizing monoclonal …); assay: SPR (BIAcore X), nmAb-KT immobilised, rounded against Table 2
[5] = target: T1, nmAb-KT (neutralizing monoclonal …); assay: SPR (BIAcore X), nmAb-KT immobilised, differs in the last digit from Table 2
[6] = target: T1, nmAb-KT (neutralizing monoclonal …); assay: SPR (BIAcore X), nmAb-KT immobilised; ratio of Ka values

T2 sequence (P02769 25-607 limits assumed): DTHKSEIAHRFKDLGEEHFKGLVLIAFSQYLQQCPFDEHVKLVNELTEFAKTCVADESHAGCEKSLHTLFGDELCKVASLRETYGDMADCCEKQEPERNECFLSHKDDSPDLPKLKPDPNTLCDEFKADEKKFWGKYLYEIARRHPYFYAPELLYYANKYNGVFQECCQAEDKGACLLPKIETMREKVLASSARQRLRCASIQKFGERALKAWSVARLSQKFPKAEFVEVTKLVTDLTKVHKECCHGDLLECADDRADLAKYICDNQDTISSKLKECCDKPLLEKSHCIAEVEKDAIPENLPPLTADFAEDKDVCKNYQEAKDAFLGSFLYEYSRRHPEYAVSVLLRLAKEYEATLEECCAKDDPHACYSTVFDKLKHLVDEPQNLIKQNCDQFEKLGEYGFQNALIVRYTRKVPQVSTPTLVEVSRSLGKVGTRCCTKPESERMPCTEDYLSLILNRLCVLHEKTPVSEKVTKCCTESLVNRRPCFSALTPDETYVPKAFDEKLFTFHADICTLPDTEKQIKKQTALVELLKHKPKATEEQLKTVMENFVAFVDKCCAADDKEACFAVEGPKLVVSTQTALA

Row | Binder | Ka [1] [M⁻¹] | koff [2] [s⁻¹] | kon [2] [M⁻¹ s⁻¹] | binding result [3] | Ka [4] [M⁻¹] | Ka [5] [M⁻¹] | fold of affinity constant Ka against ScFv-A1 or ScFv-A4 [6] [fold] | fold of affinity constant Ka against ScFv-A3 [6] [fold]
1 | B1 | 4.79e+07 | 0.00507 | 243000 | no binding (tested: 15.75 nM-250 nM ScFv) | 4.8e+07 |  |  | 
2 | B2 | 3.05e+07 | 0.00751 | 229000 | no binding (tested: 15.75 nM-250 nM ScFv) |  | 3.04e+07 |  | 
3 | B3 | 4.48e+07 | 0.005 | 224000 | no binding (tested: 15.75 nM-250 nM ScFv) |  |  |  | 
4 | B4 | 6.66e+07 | 0.00458 | 305000 | no binding (tested: 15.75 nM-250 nM ScFv) |  | 6.65e+07 | ~1.2 | ~2
